Data taken from US8889621B2, “Inhibiting binding of FGF23 to the binary FGFR-Klotho complex for the treatment of hypophosphatemia” (New York University, priority 2009, dated 2014).

Legend:
[1] = biological target: T1, binary FGFR1c-Klotho complex (UniProt O35082+P11362); test: Reverse SPR competition: FGFR1c-Klotho binding to immobilized FGF23^180-251; design: species or system human FGFR1c, murine Klotho; details: reverse SPR format
T1 construct: The ectodomain of murine Klotho (A35 to K982) was purified from culture media; FLAG (C); made in house; host or cells: E. coli (FGFR1c, FGF23); HEK293 (Klotho ectodomain)
T1 sequence (P11362 142-365): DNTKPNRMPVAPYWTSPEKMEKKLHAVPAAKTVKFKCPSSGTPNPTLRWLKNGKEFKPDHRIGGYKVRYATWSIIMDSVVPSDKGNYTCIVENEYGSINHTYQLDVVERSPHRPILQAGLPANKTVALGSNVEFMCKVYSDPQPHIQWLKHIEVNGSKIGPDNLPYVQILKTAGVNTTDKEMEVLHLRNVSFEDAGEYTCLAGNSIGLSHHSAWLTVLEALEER
T1 sequence (O35082 35-982): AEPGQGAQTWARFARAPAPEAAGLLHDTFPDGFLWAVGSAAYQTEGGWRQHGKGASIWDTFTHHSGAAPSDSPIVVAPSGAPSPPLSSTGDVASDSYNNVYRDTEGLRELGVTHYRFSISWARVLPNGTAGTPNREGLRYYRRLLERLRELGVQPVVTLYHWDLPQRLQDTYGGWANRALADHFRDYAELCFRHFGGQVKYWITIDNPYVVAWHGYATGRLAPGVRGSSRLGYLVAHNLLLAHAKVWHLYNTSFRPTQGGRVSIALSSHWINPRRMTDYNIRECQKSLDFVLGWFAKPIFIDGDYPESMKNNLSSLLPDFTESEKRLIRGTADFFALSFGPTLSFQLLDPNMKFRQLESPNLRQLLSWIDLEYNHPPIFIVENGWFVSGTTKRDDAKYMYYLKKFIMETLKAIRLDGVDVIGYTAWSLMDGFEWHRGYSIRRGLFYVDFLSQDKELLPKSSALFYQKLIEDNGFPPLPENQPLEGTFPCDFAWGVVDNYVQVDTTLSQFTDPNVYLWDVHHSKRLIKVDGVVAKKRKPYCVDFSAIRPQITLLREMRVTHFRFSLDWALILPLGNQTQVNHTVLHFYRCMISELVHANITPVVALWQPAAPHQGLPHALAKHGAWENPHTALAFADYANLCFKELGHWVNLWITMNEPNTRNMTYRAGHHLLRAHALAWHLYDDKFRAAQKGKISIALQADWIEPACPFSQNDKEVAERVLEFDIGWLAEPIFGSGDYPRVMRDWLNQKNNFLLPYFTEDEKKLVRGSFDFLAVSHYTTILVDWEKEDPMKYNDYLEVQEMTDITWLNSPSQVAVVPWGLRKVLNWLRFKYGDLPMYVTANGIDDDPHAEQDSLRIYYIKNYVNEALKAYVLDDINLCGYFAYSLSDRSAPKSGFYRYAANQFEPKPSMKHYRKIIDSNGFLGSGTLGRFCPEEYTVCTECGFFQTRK
Protocol: (§1) A variety of interaction or binding assays can be used to determine that an agent specifically binds the binary FGFR-Klotho complex, such as the SPR interaction analysis described below. One aspect of the present invention utilizes SPR analysis of FGF23 protein/peptide binding to the binary FGFR-Klotho complex. The SPR analysis involved FGF23 protein/peptide immobilization by amine coupling on flow channels of a chip. Proteins were injected over the chip at a flow rate of 50 μl min^−1, and at the end of each protein injection (180 s), HBS-EP buffer (10 mM HEPES-NaOH, pH 7.4, 150 mM NaCl, 3 mM EDTA, 0.005% (v/v) polysorbate 20; 50 μl min^−1) was flowed over the chip to monitor dissociation for 180 s. The chip surface was then regenerated by injecting 50 μl of 2.0 M NaCl in 10 mM sodium acetate, pH 4.5. […] For each protein injection over a FGF23 protein/peptide chip, the nonspecific responses from the FHF1B control flow channel were subtracted from the responses recorded for the flow channel onto which FGF23 protein/peptide was immobilized. […] As a control, competition of FGF23 C-terminal tail peptide in solution with immobilized FGF23 C-terminal tail peptide for binding to the binary FGFR1c-Klotho complex was analyzed. […]

[2] = biological target: T1, binary FGFR1c-Klotho complex; test: SPR: binary FGFR1c-Klotho complex passed over immobilized FGF23 protein/peptide; assay type: binding, human FGFR1c, murine Klotho
Protocol: as §1

| inhibition of FGFR1c-Klotho binding to immobilized FGF23^180-251 [1] | binding to the binary FGFR1c-Klotho complex [2] | Molecule |
| --- | --- | --- |
| inhibition | bound to the FGFR1c-Klotho complex | FGF23^28-251: human FGF23 (A28 to I251), bioactive full-length ligand expressed in E. coli (protein, listed as Homo sapiens) ASPLLGSSWGGLIHLYTATARNSYHLQIHKNGHVDGAPHQTIYSALMIRSEDAGFVVITGVMSRRYLCMDFRGNIFGSHYFDPENCRFQHQTLENGYDVYHSPQYHFLVSLGRAKRAFLPGMNPPPYSQFLSRRNEIPLIHFNTPIPRRHTRSAEDDSERDPLNVLKPRARMTPAPASCSQELPSAEDNSPMASDPLGVVRGGRVNTHAGGTGPEGCRPFAKFI |
| inhibition | avidly bound | FGF23^180-251: 72-amino acid C-terminal tail of human FGF23 (S180 to I251), expressed in E. coli (protein, listed as Homo sapiens) SAEDDSERDPLNVLKPRARMTPAPASCSQELPSAEDNSPMASDPLGVVRGGRVNTHAGGTGPEGCRPFAKFI |
